# The supplement of paper PMC10065799, “High-throughput profiling of sequence recognition by tyrosine kinases and SH2 domains using bacterial peptide display” (eLife, 2023)
# Experiments:
# AncSZ = assay: phosphorylation enrichment, bacterial display (enrichment ratio); higher = better substrate or ligand; peptides without Tyr show the background
# EPHB1 = EPHB1 (UniProt P54762); assay: as above
# EPHB2 = EPHB2 (UniProt P29323); assay: as above
# FGFR1 = FGFR1 (UniProt P11362); assay: as above
# FGFR3 = FGFR3 (UniProt P22607); assay: as above
# Fer (mouse) = assay: as above
# Fes = Fes (UniProt P07332); assay: as above
# Fyn = Fyn (UniProt P06241); assay: as above
# Hck = Hck (UniProt P08631); assay: as above
# Jak2 = Jak2 (UniProt O60674); assay: as above
# MERTK = MERTK (UniProt Q12866); assay: as above
# c-Abl (mouse) = assay: as above
# c-Src = assay: as above
# Grb2 SH2 = Grb2 SH2 (UniProt P62993); assay: SH2 binding enrichment of the phosphorylated peptide, bacterial display (enrichment ratio); higher = better substrate or ligand; peptides without Tyr show the background
# SHP2-C SH2 = assay: as above
# c-Src SH2 = assay: as above
# 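For SH2 binding enrichment of the phosphorylated peptide, bacterial display in this document: peptide library displayed on the E. coli surface as eCPX fusions, selected cells deep-sequenced, score is each peptide's frequency after selection divided by its frequency in the input.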
# 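For phosphorylation enrichment, bacterial display in this document: 11-residue human phosphosite peptides and single-mutation variants displayed on the E. coli surface, counted by deep sequencing, each peptide's frequency after selection divided by its frequency in the unselected input library; frequency after pTyr selection over input frequency; kinase dosed for 20-30% of maximal phosphorylation in three min.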
# Sequence of Fes (P07332 whole entry, looked up): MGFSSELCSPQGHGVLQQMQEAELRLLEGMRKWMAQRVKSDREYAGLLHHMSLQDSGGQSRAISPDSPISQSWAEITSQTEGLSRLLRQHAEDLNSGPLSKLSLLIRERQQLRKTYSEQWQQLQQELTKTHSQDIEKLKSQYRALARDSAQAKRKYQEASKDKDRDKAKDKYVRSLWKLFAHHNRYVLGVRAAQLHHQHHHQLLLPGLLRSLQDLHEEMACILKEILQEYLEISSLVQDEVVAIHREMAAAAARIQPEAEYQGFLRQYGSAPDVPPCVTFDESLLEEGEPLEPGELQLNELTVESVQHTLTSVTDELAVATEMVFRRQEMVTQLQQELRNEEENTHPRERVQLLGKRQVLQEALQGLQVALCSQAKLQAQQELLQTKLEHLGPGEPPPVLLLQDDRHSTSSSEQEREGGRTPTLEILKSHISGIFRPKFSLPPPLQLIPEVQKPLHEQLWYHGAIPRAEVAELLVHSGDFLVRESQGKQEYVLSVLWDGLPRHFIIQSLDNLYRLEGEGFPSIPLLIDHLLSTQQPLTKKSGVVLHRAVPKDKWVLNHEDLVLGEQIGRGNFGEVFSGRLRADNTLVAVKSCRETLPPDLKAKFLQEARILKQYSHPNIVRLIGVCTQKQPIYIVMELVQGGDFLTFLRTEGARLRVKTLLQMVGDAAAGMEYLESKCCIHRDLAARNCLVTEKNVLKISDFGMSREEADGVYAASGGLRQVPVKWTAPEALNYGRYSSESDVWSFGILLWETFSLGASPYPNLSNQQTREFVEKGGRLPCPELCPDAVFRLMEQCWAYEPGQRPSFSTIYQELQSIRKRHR
# Sequence of Jak2 (O60674 whole entry, looked up): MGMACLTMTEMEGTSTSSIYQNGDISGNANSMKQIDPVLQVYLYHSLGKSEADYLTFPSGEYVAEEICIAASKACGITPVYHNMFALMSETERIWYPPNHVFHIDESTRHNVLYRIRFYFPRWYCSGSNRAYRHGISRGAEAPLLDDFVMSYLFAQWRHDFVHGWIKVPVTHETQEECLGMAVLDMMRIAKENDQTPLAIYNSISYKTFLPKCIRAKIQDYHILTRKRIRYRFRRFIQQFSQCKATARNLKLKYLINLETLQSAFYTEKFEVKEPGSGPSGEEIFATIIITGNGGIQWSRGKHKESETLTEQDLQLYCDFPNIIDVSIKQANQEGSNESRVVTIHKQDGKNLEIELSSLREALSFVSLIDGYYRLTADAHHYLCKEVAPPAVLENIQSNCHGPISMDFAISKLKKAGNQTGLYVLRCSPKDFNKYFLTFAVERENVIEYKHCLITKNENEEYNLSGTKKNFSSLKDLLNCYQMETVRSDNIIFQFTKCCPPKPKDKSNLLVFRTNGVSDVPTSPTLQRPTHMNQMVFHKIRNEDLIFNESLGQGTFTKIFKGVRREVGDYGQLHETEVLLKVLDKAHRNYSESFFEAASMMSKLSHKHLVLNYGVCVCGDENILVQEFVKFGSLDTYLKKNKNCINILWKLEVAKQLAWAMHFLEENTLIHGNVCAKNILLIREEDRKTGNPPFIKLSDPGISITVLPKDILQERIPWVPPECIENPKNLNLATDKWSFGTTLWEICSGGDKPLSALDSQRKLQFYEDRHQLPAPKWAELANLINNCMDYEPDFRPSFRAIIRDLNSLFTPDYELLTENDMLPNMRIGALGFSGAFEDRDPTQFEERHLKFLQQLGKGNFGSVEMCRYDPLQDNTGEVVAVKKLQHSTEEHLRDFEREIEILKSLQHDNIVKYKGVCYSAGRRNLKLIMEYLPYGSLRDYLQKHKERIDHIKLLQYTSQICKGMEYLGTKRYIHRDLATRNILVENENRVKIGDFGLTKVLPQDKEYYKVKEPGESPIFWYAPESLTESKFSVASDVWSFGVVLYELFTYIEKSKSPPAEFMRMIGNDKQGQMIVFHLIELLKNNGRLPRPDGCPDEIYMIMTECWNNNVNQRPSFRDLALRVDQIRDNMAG
# Sequence of EPHB2 (P29323 whole entry, looked up): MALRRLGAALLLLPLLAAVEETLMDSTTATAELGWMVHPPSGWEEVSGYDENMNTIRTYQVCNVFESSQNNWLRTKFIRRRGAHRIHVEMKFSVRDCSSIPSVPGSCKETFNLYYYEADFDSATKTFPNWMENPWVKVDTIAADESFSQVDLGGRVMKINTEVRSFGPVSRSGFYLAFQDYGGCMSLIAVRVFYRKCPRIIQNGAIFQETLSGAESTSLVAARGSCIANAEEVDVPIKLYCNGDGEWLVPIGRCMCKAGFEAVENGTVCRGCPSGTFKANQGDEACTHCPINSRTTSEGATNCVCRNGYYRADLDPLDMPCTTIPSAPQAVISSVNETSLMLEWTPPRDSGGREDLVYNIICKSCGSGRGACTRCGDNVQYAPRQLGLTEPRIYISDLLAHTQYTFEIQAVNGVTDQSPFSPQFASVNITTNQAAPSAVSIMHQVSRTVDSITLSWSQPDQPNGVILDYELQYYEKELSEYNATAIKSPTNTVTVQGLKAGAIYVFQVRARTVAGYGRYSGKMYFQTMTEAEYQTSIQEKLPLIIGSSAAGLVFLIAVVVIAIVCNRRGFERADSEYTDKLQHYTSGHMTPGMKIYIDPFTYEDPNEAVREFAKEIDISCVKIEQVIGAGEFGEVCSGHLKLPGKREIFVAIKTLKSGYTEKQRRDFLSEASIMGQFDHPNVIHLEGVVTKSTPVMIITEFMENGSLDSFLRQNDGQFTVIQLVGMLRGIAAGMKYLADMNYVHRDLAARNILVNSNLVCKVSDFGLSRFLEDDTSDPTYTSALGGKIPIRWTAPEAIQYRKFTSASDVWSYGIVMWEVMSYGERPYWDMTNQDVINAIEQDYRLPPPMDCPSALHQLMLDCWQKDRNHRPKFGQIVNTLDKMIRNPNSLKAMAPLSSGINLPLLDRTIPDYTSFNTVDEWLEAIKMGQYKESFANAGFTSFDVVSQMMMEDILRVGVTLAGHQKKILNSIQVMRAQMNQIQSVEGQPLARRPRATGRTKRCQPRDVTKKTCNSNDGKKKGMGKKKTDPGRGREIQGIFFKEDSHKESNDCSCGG
# Sequence of FGFR1 (P11362 whole entry, looked up): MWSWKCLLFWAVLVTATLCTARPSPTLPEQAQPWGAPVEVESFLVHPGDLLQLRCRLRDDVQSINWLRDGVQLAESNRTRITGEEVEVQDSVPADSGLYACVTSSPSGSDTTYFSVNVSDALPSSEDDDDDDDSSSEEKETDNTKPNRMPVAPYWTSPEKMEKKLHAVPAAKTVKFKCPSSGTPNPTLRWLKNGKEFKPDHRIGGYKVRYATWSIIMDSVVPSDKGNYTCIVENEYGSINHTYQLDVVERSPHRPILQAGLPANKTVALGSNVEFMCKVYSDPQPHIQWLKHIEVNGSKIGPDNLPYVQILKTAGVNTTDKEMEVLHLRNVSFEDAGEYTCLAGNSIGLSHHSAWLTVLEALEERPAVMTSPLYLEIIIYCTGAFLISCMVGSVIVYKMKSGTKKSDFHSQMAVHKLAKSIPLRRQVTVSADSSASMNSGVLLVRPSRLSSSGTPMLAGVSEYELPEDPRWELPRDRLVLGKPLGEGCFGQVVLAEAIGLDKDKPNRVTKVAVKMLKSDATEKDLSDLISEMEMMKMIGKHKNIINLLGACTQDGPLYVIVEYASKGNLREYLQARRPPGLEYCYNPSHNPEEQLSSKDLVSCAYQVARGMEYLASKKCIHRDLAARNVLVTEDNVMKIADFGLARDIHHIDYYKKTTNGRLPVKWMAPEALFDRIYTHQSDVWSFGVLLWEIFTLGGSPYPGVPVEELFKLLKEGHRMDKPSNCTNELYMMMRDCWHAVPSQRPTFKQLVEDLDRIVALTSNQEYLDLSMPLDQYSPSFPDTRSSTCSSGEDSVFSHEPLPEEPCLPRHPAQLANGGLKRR
# Sequence of MERTK (Q12866 whole entry, looked up): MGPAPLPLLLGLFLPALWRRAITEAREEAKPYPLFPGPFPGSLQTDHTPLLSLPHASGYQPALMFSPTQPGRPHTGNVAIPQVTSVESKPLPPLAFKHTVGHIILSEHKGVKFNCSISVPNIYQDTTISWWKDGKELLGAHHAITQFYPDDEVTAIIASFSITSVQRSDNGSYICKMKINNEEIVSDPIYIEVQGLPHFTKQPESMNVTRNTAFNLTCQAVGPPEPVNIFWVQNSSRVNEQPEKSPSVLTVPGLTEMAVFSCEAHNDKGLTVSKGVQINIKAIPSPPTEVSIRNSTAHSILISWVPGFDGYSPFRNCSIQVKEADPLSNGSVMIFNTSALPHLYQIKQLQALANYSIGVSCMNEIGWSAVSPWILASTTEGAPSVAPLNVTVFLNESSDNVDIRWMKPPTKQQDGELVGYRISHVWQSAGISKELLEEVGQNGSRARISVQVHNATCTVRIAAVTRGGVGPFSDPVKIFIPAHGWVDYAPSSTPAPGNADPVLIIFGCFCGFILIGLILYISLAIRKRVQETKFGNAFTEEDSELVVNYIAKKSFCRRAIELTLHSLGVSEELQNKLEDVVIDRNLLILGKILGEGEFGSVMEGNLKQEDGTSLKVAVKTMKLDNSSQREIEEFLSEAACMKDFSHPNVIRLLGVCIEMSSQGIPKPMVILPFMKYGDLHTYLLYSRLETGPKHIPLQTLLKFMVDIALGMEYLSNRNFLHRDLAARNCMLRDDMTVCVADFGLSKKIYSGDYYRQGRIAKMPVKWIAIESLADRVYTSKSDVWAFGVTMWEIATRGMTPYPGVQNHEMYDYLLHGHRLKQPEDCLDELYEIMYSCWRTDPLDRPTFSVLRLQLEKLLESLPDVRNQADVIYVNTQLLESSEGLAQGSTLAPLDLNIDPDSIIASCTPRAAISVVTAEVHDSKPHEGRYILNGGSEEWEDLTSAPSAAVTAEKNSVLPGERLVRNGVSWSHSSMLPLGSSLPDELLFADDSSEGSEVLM
Sequence,SH2 binding enrichment (Grb2 SH2),SH2 binding enrichment (SHP2-C SH2),SH2 binding enrichment (c-Src SH2),phosphorylation enrichment (AncSZ),phosphorylation enrichment (EPHB1),phosphorylation enrichment (EPHB2),phosphorylation enrichment (FGFR1),phosphorylation enrichment (FGFR3),phosphorylation enrichment (Fer (mouse)),phosphorylation enrichment (Fes),phosphorylation enrichment (Fyn),phosphorylation enrichment (Hck),phosphorylation enrichment (Jak2),phosphorylation enrichment (MERTK),phosphorylation enrichment (c-Abl (mouse)),phosphorylation enrichment (c-Src)
IRTIDYRFTVC [IDS_Y497_W502C_YF],0.85,0.739,0.407,1.22,0.787,0.579,0.561,0.832,0.518,1.38,0.444,0.581,1.14,0.396,0.952,0.469
ISKKIYDTIHD [CTNNA3_Y614],0.746,0.675,5.91,0.555,0.351,0.516,0.433,0.357,0.421,0.587,0.584,0.742,0.582,0.445,0.452,0.579
ITKQEYDEAGP [ACTA1_Y364],0.869,0.786,7.7,1.14,0.553,0.488,0.475,0.689,0.494,1.08,0.563,0.51,0.881,0.423,0.679,0.422
ITSLLYHVVGW [GBA_Y412_N409S],1.14,1.22,0.959,1.32,5.12,2.99,5.64,5,2.94,1.31,3.16,4.74,2.57,7.37,2,3.6
KAIMTYVPSFY [ACTN4_Y260_S262P],0.818,1.03,1.15,0.67,0.413,0.63,0.378,0.509,0.415,0.646,0.52,0.425,0.639,0.439,0.803,0.472
KENITYMKREQ [L1TD1_Y24],0.809,0.692,0.498,0.827,0.498,0.514,0.462,0.554,0.431,1.05,0.443,0.554,0.828,0.453,0.703,0.58

# Second part, led by results:
SH2 binding enrichment (Grb2 SH2),SH2 binding enrichment (SHP2-C SH2),SH2 binding enrichment (c-Src SH2),Sequence,phosphorylation enrichment (AncSZ),phosphorylation enrichment (EPHB1),phosphorylation enrichment (EPHB2),phosphorylation enrichment (FGFR1),phosphorylation enrichment (FGFR3),phosphorylation enrichment (Fer (mouse)),phosphorylation enrichment (Fes),phosphorylation enrichment (Fyn),phosphorylation enrichment (Hck),phosphorylation enrichment (Jak2),phosphorylation enrichment (MERTK),phosphorylation enrichment (c-Abl (mouse)),phosphorylation enrichment (c-Src)
0.642,0.719,0.419,IVEFAYNDKAI [PUM3_Y259_YF],0.783,0.395,0.59,0.432,0.525,0.406,0.74,0.475,0.52,0.668,0.494,0.538,0.474
1.09,1.19,0.833,IYHLSYHHNCE [PDE6B_Y227_L228H],1.29,0.703,0.602,1.32,1.17,0.671,1.34,2.15,1.51,1.03,3.55,2.09,2.29
0.894,1.79,0.674,KDFTKYVAFIE [KDM4B_Y31_N29T_YF],0.849,0.55,0.626,0.442,0.623,0.422,1.06,0.521,0.462,0.879,0.481,0.614,0.457
0.966,2.42,0.608,KDFTKYVAYIE [KDM4B_Y31_N29T],0.864,0.651,0.584,0.604,0.734,0.434,1.07,0.541,0.558,0.921,0.465,0.679,0.523
0.93,0.793,0.631,KDHPDYKYQLR [SOX10_Y171_P175L],0.665,0.417,0.395,0.432,0.491,0.418,0.704,0.403,0.431,0.656,0.38,0.696,0.411
0.87,0.645,0.436,KEAALYPHLLP [SQSTM1_Y383_P387L],0.648,0.427,0.544,0.512,0.481,0.419,0.757,0.405,0.438,0.649,0.432,0.549,0.366
0.68,0.569,0.459,KEIHAYRKLLE [LMNA_Y376_M371K],0.63,0.397,0.481,0.429,0.487,0.468,0.76,0.344,0.476,0.59,0.414,0.489,0.506
0.953,0.596,0.633,KFFRVYQGQQP [MUTYH_Y494_V490F],0.898,0.452,0.507,0.592,0.78,0.431,0.842,0.623,0.495,0.627,0.447,0.652,0.457
